Columns and labels:
rhPD-L1 = rhPD-L1 (human, UniProt Q9NZQ7); test: ELISA
PD-L1 [1] = target: T1, PD-L1 (human, UniProt Q9NZQ7); test: FACS, 4C
SSTR4 = SSTR4 (human, UniProt P31391); test: FACS, membrane proteome array titration
PD-L1 [2] = target: T1, PD-L1; test: competition, FACS blocking of biotin-PD-1, 4C

T1 sequence (Q9NZQ7 19-238): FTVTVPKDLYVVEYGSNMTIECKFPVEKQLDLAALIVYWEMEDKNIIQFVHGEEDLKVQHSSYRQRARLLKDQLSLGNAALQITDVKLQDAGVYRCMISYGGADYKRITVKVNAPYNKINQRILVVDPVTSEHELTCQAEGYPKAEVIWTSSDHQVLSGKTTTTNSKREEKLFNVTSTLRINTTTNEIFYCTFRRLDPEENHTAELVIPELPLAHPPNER
Chain of rhPD-L1 (Q9NZQ7 19-238): as above
Chain of SSTR4 (P31391 whole entry): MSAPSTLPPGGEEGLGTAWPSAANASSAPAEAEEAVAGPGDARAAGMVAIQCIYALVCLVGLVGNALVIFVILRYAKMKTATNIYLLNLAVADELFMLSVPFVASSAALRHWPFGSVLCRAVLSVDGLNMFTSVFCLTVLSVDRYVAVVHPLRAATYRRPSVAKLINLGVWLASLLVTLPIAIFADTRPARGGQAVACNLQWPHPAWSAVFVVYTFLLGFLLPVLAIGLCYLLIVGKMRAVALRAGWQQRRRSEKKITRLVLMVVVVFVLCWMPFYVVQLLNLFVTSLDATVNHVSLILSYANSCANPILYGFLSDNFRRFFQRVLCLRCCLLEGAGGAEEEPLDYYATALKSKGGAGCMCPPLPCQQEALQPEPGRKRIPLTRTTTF

B1: TCRC-L8 (antibody, V domains shown)
VH: QVQLQESGPGLVKPSETLSLTCTVSGDSITSGYWNWIRQPPGKGLEYMGYISFTGSTYYNPSLKSRVTISVDTSKNQFSLKLSSVTAADTAVYYCARKREWILHPMDYWGQGTLVTVSS
VL: AIQLTQSPSSLSASVGDRVTITCSASSSVSYMHWYQQKPGKAPKLWIYDTSKLASGVPSRFSGSGSGTDFTLTISSLQPEDFATYYCFQESGYPLTFGGGTKLTVL
For B1, the Kd (rhPD-L1) was 0.036 µg/mL, the Kd (PD-L1 [1]) was 0.058 µg/mL and the binding result (SSTR4) was “no binding”. The EC50 (PD-L1 [2]) was 0.058 µg/mL.

B2: TCRC-L2 (antibody, V domains shown)
VH: EVQLQESGPSLVKPSQTLSLTCSVTGDSITSGYWNWIRKFPENKLEYMGYISFTGSTYYNPSLKSRISITRDTSKNQYYLQLNSVTTEDTATYYCARKREWILHPMDYWGQGTSVTVSS
VL: ENVLTQSPAIMSASPGEKVTMTCSASSSVSYMHWYQQKSLTSPKLWIYDTSKLASGVPGRFSGSGSGNFYSLTISSMEAEDVATYYCFQESGYPLTFGAGTKLELK
In the case of B2, the Kd (rhPD-L1) is reported as 0.04 µg/mL, the Kd (PD-L1 [1]) is reported as 0.074 µg/mL and the EC50 (PD-L1 [2]) is reported as 0.074 µg/mL.
